Biological target: T1, Smad3 phosphorylated at the C-terminus (pSmad3C) (human (endogenous in ES-2), UniProt P84022 1-425, phospho-serines 423/425 (C-terminal SSXS motif))
T1 construct: Smad3, endogenous in human ES-2 ovarian cancer cells, precipitated with α-pSmad3C (raised against phospho-serines 423/425 of Smad3); The α-pSmad3C antibody cross-reacts with C-terminus phosphorylated Smad2; In 2ME2-arrested cells Smad3 is also phosphorylated on threonine 179, but pSmad3(179) was detected inconsistently in the immunoprecipitates; also called C-terminally phosphorylated Smad3; …
T1 sequence (P84022 whole entry): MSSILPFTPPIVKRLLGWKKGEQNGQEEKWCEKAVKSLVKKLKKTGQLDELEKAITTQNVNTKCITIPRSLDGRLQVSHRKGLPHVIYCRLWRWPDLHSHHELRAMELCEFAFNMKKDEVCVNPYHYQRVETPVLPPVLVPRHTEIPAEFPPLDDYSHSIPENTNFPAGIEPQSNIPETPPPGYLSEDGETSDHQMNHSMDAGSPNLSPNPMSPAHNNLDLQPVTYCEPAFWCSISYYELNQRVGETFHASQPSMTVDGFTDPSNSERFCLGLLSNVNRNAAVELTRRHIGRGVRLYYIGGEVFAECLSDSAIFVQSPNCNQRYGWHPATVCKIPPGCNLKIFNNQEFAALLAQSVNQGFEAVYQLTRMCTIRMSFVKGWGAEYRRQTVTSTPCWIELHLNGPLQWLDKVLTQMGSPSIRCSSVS
Assay: co-IP; immunoprecipitation with α-pSmad3C (overnight, 4°C) and protein A-sepharose from lysates of 10^8 ES-2 cells treated with TGF-β1 (1 h) or 2ME2 (16 h); 420 mM NaCl, 50 mM Hepes pH 7.8, 5 mM EDTA, 1% NP-40, 3% DTT; blots with α-Ski, α-Smurf2, α-tSmad2/3; control: sepharose beads alone
Settings: partners not purified

fold increase of the Ski/tSmad3 ratio in the anti-pSmad3C immunoprecipitate, 2ME2-arrested cells relative to TGF-β1-activated cells: 7.7 ± 1.7 fold
B1: Ski (natural protein, human (endogenous in ES-2), UniProt P12755 1-728, looked up)
chain: MEAAAGGRGCFQPHPGLQKTLEQFHLSSMSSLGGPAAFSARWAQEAYKKESAKEAGAAAVPAPVPAATEPPPVLHLPAIQPPPPVLPGPFFMPSDRSTERCETVLEGETISCFVVGGEKRLCLPQILNSVLRDFSLQQINAVCDELHIYCSRCTADQLEILKVMGILPFSAPSCGLITKTDAERLCNALLYGGAYPPPCKKELAASLALGLELSERSVRVYHECFGKCKGLLVPELYSSPSAACIQCLDCRLMYPPHKFVVHSHKALENRTCHWGFDSANWRAYILLSQDYTGKEEQARLGRCLDDVKEKFDYGNKYKRRVPRVSSEPPASIRPKTDDTSSQSPAPSEKDKPSSWLRTLAGSSNKSLGCVHPRQRLSAFRPWSPAVSASEKELSPHLPALIRDSFYSYKSFETAVAPNVALAPPAQQKVVSSPPCAAAVSRAPEPLATCTQPRKRKLTVDTPGAPETLAPVAAPEEDKDSEAEVEVESREEFTSSLSSLSSPSFTSSSSAKDLGSPGARALPSAVPDAAAPADAPSGLEAELEHLRQALEGGLDTKEAKEKFLHEVVKMRVKQEEKLSAALQAKRSLHQELEFLRVAKKEKLREATEAKRNLRKEIERLRAENEKKMKEANESRLRLKRELEQARQARVCDKGCEAGRLRAKYSAQIEDLQVKLQHAEADREQLRADLLREREAREHLEKVVKELQEQLWPRARPEAAGSEGAAELEP
notes: Ski, endogenous in human ES-2 ovarian cancer cells, detected with α-Ski (Santa Cruz); source: endogenous, ES-2 cell lysate
